# Data published in patent US20130022606A1.
# Target: rat prolactin receptor on Nb2 rat lymphoma cells (rat) (UniProt P05710)
# Assay: FACS on rat lymphoma cell line Nb2, IgG1
row,Binder,EC50 [nM]
1,"HE06.642 (antibody, V domains shown) VH: EVQLVESGGGLVQPGGSLRLSCAVSGFTFSSYGMSWVRQAPGKGLEWVATVSSGGTYTYYPDSVKGRFTISRDNSKNTLYLQMNSLRAEDTAVYYCARHRGNYYATYYYAMDYWGQGTLVTVSS VL: DIVLTQSPDSLAVSLGERATINCKASKSVSTSGYTYMHWYQQKPGQPPKLLIYLASNRESGVPDRFSGSGSGTDFTLTISPVQAEDVATYYCQHSGELPPSFGQGTKLEIKR",0.9
2,"XHA06.642 (antibody, V domains shown) VH: EVQLVESGGDLVKPGGSLKLSCAVSGFTFSSYGMSWVRQTPDKRLEWVATVSSGGTYTYYPDSVKGRFTISRDNAKNTLYLQMSSLKSEDSAMYYCARHRGNYYATYYYAMDYWGQGTSVTVSS VL: DIVLTQSPASLAVSLGQGATISCRASKSVSTSGYTYMHWYQQKPGQPPKLLIYLASNLESGVPARFSGSGSGTDFTLNIHPVEEEDAATYYCQHSGELPPSFGGGTKLEIKR",1.1
3,"001-E06 (IgG1) (antibody, V domains shown) VH: QVELLESGGGLVQPGGSLRLSCAASGFTFSSYWMSWVRQAPGKGLEWVSSVSDTGTDTHYADSVKGRFTISRDNSKNTLYLQMNSLRAEDTAVYYCAKTPLAYSSGWYYFDYWGQGTLVTVSS VL: DIVLTQPPSASGTPGQRVTISCSGSSSNIGSNTVNWYQQLPGTAPKLLIYRNYQRPSGVPDRFSGSKSGTSASLAISGLRSEDEADYYCQSYDSSLSGSVFGGGTKLTVLG",1.2
